B1: YAP^50-171 (domain or fragment, UniProt P46937 50-171, looked up)
chain: AGHQIVHVRGDSETDLEALFNAVMNPKTANVPQTVPMRLRKLPDSFFKPPEPKSHSRQASTDAGTAGALTPQHVRAHSSPASLQLGAVSPGTLTPTGVVSGPAATPTAQHLRQSSFEIPDDV
notes: YAP (Yes-associated protein), residues 50-171; 15N-labelled in the intermolecular PRE control; also called YAP^wt; Yes-associated protein; source: E. coli Tuner(DE3), purified (HisTrap FF, 3C protease cleavage, heating to 90°C, size exclusion); not shown: His6, N-terminal, cleaved
B2: YAP^50-171 A71C (domain or fragment, UniProt P46937 50-171, looked up)
chain: AGHQIVHVRGDSETDLEALFNCVMNPKTANVPQTVPMRLRKLPDSFFKPPEPKSHSRQASTDAGTAGALTPQHVRAHSSPASLQLGAVSPGTLTPTGVVSGPAATPTAQHLRQSSFEIPDDV
notes: YAP (Yes-associated protein), residues 50-171; source: E. coli Tuner(DE3), purified (HisTrap FF, 3C protease cleavage, heating to 90°C, size exclusion; buffers with 1 mM DTT); not shown: His6, N-terminal, cleaved
B3: YAP^50-171 T119C (domain or fragment, UniProt P46937 50-171, looked up)
chain: AGHQIVHVRGDSETDLEALFNAVMNPKTANVPQTVPMRLRKLPDSFFKPPEPKSHSRQASTDAGTAGALCPQHVRAHSSPASLQLGAVSPGTLTPTGVVSGPAATPTAQHLRQSSFEIPDDV
notes: as for B2
B4: YAP^50-171 D60C (domain or fragment, UniProt P46937 50-171, looked up)
chain: AGHQIVHVRGCSETDLEALFNAVMNPKTANVPQTVPMRLRKLPDSFFKPPEPKSHSRQASTDAGTAGALTPQHVRAHSSPASLQLGAVSPGTLTPTGVVSGPAATPTAQHLRQSSFEIPDDV
notes: as for B2
B5: YAP^50-171 V80C (domain or fragment, UniProt P46937 50-171, looked up)
chain: AGHQIVHVRGDSETDLEALFNAVMNPKTANCPQTVPMRLRKLPDSFFKPPEPKSHSRQASTDAGTAGALTPQHVRAHSSPASLQLGAVSPGTLTPTGVVSGPAATPTAQHLRQSSFEIPDDV
notes: as for B2
B6: YAP^50-171 S103C (domain or fragment, UniProt P46937 50-171, looked up)
chain: AGHQIVHVRGDSETDLEALFNAVMNPKTANVPQTVPMRLRKLPDSFFKPPEPKCHSRQASTDAGTAGALTPQHVRAHSSPASLQLGAVSPGTLTPTGVVSGPAATPTAQHLRQSSFEIPDDV
notes: as for B2
B7: YAP^50-171 S164C (domain or fragment, UniProt P46937 50-171, looked up)
chain: AGHQIVHVRGDSETDLEALFNAVMNPKTANVPQTVPMRLRKLPDSFFKPPEPKSHSRQASTDAGTAGALTPQHVRAHSSPASLQLGAVSPGTLTPTGVVSGPAATPTAQHLRQSCFEIPDDV
notes: as for B2
B8: YAP^50-171 K90C (domain or fragment, UniProt P46937 50-171, looked up)
chain: AGHQIVHVRGDSETDLEALFNAVMNPKTANVPQTVPMRLRCLPDSFFKPPEPKSHSRQASTDAGTAGALTPQHVRAHSSPASLQLGAVSPGTLTPTGVVSGPAATPTAQHLRQSSFEIPDDV
notes: as for B2
B9: YAP^50-171 S149C (domain or fragment, UniProt P46937 50-171, looked up)
chain: AGHQIVHVRGDSETDLEALFNAVMNPKTANVPQTVPMRLRKLPDSFFKPPEPKSHSRQASTDAGTAGALTPQHVRAHSSPASLQLGAVSPGTLTPTGVVCGPAATPTAQHLRQSSFEIPDDV
notes: as for B2
B10: YAP^50-171 Q158C (domain or fragment, UniProt P46937 50-171, looked up)
chain: AGHQIVHVRGDSETDLEALFNAVMNPKTANVPQTVPMRLRKLPDSFFKPPEPKSHSRQASTDAGTAGALTPQHVRAHSSPASLQLGAVSPGTLTPTGVVSGPAATPTACHLRQSSFEIPDDV
notes: as for B2
B11: YAP^50-171 S127C (domain or fragment, UniProt P46937 50-171, looked up)
chain: AGHQIVHVRGDSETDLEALFNAVMNPKTANVPQTVPMRLRKLPDSFFKPPEPKSHSRQASTDAGTAGALTPQHVRAHCSPASLQLGAVSPGTLTPTGVVSGPAATPTAQHLRQSSFEIPDDV
notes: as for B2
B12: YAP^50-171 S138C (domain or fragment, UniProt P46937 50-171, looked up)
chain: AGHQIVHVRGDSETDLEALFNAVMNPKTANVPQTVPMRLRKLPDSFFKPPEPKSHSRQASTDAGTAGALTPQHVRAHSSPASLQLGAVCPGTLTPTGVVSGPAATPTAQHLRQSSFEIPDDV
notes: as for B2

Biological target: T1, Biotinylated N-Avitagged-TEAD4^217-434 (UniProt Q15561 217-434, biotin (biotinylated Avitag))
T1 construct: TEAD4, residues 217-434; not shown: Avitag, N-terminal, kept
Assay: FRET or BRET; TR-FRET competition: biotinylated N-Avitagged TEAD4 217-434 (1 nM) on LANCE Eu-W1024 streptavidin (0.5 nM), Cy5-labelled YAP as tracer, serial dilutions of the YAP proteins; 50 mM HEPES pH 7.4, 100 mM KCl, 0.05% Tween-20, 0.25 mM TCEP, 0.05% BSA, 2% DMSO; 1 h at room temperature
Details: both partners purified

T1 sequence (Q15561 217-434): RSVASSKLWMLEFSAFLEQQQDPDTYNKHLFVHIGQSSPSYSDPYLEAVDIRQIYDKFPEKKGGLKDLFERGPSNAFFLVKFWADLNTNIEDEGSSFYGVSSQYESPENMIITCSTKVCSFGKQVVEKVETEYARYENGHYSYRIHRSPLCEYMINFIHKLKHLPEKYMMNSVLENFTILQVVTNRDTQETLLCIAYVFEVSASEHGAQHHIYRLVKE

Binding result, binds:
B1, B2, B3, B4, B5, B6, B7, B8, B9, B10, B11, B12

Reference: publication PMC8976148, “Long-range structural preformation in yes-associated protein precedes encounter complex formation with TEAD” (iScience, 2022)
